This is an account of results in doi:10.1101/2022.12.27.521990.

The target in this assay is Soluble, trimeric spike of SARS-CoV-2/human/China/Wuhan-Hu-1/2019 (residues 1-1204, 6 proline mutations) (SARS-CoV-2) (UniProt P0DTC2). The assay can be described thus: SEC.

For “Soluble, trimeric spike of SARS-CoV-2/human/China/Wuhan-Hu-1/2019 (residues 1-1204, 6 proline mutations) (from UniProt P0DTC2 14-1204) (domain or fragment)”, the stoichiometry N is 3.
